Data from US20210100858A1.

Target: Epidermal growth factor receptor (EGFR) on HT29 human colon adenocarcinoma cells (human) (UniProt P00533)
Assay: cell-based or functional assay

“Hi-D::EGF phage (λF7 phage with maximal EGF surface decoration, generated using SupD E. coli host at 37° C.) (from UniProt P03712 1-110)” was tested, and the EOP of phage recovered from HT29 spheroids, intercellular, 30 min was 0.00156 EOP, the EOP of phage recovered from HT29 spheroids, intercellular, 4 h was 0.0572 EOP and the EOP of phage recovered from HT29 spheroids, intercellular, 8 h was 0.0183 EOP. For the same substance, the EOP of phage recovered from HT29 spheroids, intercellular, 24 h was 0.0113 EOP, the EOP of phage recovered from lysed HT29 cells, intracellular, 30 min was 0.00013 EOP and the EOP of phage recovered from lysed HT29 cells, intracellular, 4 h was 0.00392 EOP. For the same substance, the EOP of phage recovered from lysed HT29 cells, intracellular, 8 h was 0.00147 EOP, the EOP of phage recovered from lysed HT29 cells, intracellular, 24 h was 0.000312 EOP and the HT29 spheroid diameter on day 20, 10^4 PFU phage was 1330 µm. For the same substance, the HT29 spheroid diameter on day 20, 10^8 PFU phage was 422 µm, the recovery of phage particles from the interstitial spaces and within cells at 30 min, against wildtype phages was 150 fold and the size of HT29 spheroids on day 20 against control spheroids, high concentration of phage was 3 fold.
